Test results published in patent US7462599.

Key:
[1] = molecular target: recombinant human glutaminyl cyclase (QC, EC 2.3.2.5) (human) (UniProt Q16769); experiment: competitive inhibition of the human QC catalyzed reaction, 30° C, 0.05 M Tris-HCl pH 8.0, 5 mM EDTA
H-Gln-Ala-NH2 = tested on: T1, H-Gln-Ala-NH2
T1 sequence: QA

H-Gln-Trp-Ala-NH2 = tested on: T2, H-Gln-Trp-Ala-NH2
T2 sequence: QWA

H-Gln-Tyr-Ala-OH = tested on: T3, H-Gln-Tyr-Ala-OH
T3 sequence: QYA

[Gln^1]-FPP = tested on: T4, [Gln^1]-FPP
T4 sequence: QEP

H-Gln-Glu-Ala-Phe-NH2 = tested on: T5, H-Gln-Glu-Ala-Phe-NH2
T5 sequence: QEAF

H-Gln-Pro-Tyr-Phe-NH2 = tested on: T6, H-Gln-Pro-Tyr-Phe-NH2
T6 sequence: QPYF

H-Gln-Glu-Tyr-Phe-NH2 = tested on: T7, H-Gln-Glu-Tyr-Phe-NH2
T7 sequence: QEYF

[2] = tested on: T8, H-βhomoGln-Phe-Lys-Arg-Leu-Ala-NH2
T8 sequence: QFKRLA

[Gln^1]-Gastrin = tested on: T9, [Gln^1]-Gastrin
T9 sequence: QGPWLEEEEEAYGWMDF

[3] = tested on: T10, H-Gln(NMe)-Phe-Lys-Ala-Glu-NH2
T10 sequence: QFKAE

[Gln^1]-GnRH = tested on: T11, [Gln^1]-GnRH
T11 sequence: QHWSYGLRPG

H-Gln-Asn-Gly-Ile-NH2 = tested on: T12, H-Gln-Asn-Gly-Ile-NH2
T12 sequence: QNGI

H-Gln-Glu-Tyr-Ala-NH2 = tested on: T13, H-Gln-Glu-Tyr-Ala-NH2
T13 sequence: QEYA

H-Gln-Ser-Tyr-Phe-NH2 = tested on: T14, H-Gln-Ser-Tyr-Phe-NH2
T14 sequence: QSYF

H-Gln-Gln-OH = tested on: T15, H-Gln-Gln-OH
T15 sequence: QQ

[4] = tested on: T16, H-Gln-cyclo(Nε-Lys-Arg-Pro-Ala-Gly-Phe)
T16 sequence: QKRPAGF

H-Gln-Glu-Asp-Leu-NH2 = tested on: T17, H-Gln-Glu-Asp-Leu-NH2
T17 sequence: QEDL

H-Gln-Glu-Tyr-NH2 = tested on: T18, H-Gln-Glu-Tyr-NH2
T18 sequence: QEY

H-Gln-Glu-Ala-Ala-NH2 = tested on: T19, H-Gln-Glu-Ala-Ala-NH2
T19 sequence: QEAA

H-Gln-Glu-OH = tested on: T20, H-Gln-Glu-OH
T20 sequence: QE

[Gln^3]-glucagon(3-29) = [Gln^3]-glucagon(3-29) (UniProt P01275)
Chain of [Gln^3]-glucagon(3-29) (P01275 23-49): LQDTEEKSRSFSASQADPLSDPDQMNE

H-Gln-Gly-Pro-OH = tested on: T21, H-Gln-Gly-Pro-OH
T21 sequence: QGP

[5] = tested on: T22, H-Gln-Ala-Ala-Ala-Ala-NH2
T22 sequence: QAAAA

H-Gln-Phe-Ala-NH2 = tested on: T23, H-Gln-Phe-Ala-NH2
T23 sequence: QFA

H-Gln-Arg-Tyr-Phe-NH2 = tested on: T24, H-Gln-Arg-Tyr-Phe-NH2
T24 sequence: QRYF

[6] = tested on: T25, [Gln^5]-substance P(5-11)
T25 sequence: QQFFGLM

H-Gln-Ala-OH = tested on: T26, H-Gln-Ala-OH
T26 sequence: QA

H-Gln-Arg-Gly-Ile-NH2 = tested on: T27, H-Gln-Arg-Gly-Ile-NH2
T27 sequence: QRGI

[7] = tested on: T28, H-Gln-Ala-Ala-Ser-Ala-Ala-NH2
T28 sequence: QAASAA

H-Gln-Gly-OH = tested on: T29, H-Gln-Gly-OH
T29 sequence: QG

H-Gln-Lys-Arg-Leu-NH2 = tested on: T30, H-Gln-Lys-Arg-Leu-NH2
T30 sequence: QKRL

H-Gln-Gln-Tyr-Phe-NH2 = tested on: T31, H-Gln-Gln-Tyr-Phe-NH2
T31 sequence: QQYF

H-Gln-His-Tyr-Phe-NH2 = tested on: T32, H-Gln-His-Tyr-Phe-NH2
T32 sequence: QHYF

H-Gln-Ala-Ala-NH2 = tested on: T33, H-Gln-Ala-Ala-NH2
T33 sequence: QAA

Chain of recombinant human glutaminyl cyclase (QC, EC 2.3.2.5) (human) (Q16769 29-361 limits assumed): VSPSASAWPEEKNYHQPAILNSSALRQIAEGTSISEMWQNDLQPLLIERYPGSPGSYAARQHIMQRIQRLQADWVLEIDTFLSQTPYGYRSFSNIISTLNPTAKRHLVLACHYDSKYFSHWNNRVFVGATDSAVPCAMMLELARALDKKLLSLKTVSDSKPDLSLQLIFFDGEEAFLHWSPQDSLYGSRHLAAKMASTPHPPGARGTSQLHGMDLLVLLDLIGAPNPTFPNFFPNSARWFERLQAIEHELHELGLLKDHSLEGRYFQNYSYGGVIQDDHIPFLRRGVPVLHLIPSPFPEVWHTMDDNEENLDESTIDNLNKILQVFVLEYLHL

Q: For H-His-Trp-OH (peptide), which Ki [1] is on record?
A: The Ki was 600 µM.

Q: “glutaminyl cyclase from Carica papaya latex” was tested. Which KM (substrate conversion by QC) (H-Gln-Ala-NH2) did it give?
A: Its KM (substrate conversion by QC) is 212 µM.

Q: What about the KM (0.05 M Tricine-NaOH, pH 8.0) (H-Gln-Trp-Ala-NH2) of the same substance?
A: The KM (0.05 M Tricine-NaOH, pH 8.0) was 0.079 mM.

Q: What about the KM (0.05 M Tricine-NaOH, pH 8.0, 0.5 M KCl) (H-Gln-Trp-Ala-NH2) of the same substance?
A: The KM (0.05 M Tricine-NaOH, pH 8.0, 0.5 M KCl) was 0.072 mM.

Q: What about the KM (substrate conversion by QC) (H-Gln-Trp-Ala-NH2) of the same substance?
A: The KM (substrate conversion by QC) was 78 µM.

Q: What about the KM (substrate conversion by QC) (H-Gln-Tyr-Ala-OH) of the same substance?
A: The KM (substrate conversion by QC) was 63 µM.

Q: And the KM (substrate conversion by QC) ([Gln^1]-FPP)?
A: The KM (substrate conversion by QC) was 232 µM.

Q: And the KM (substrate conversion by QC) (H-Gln-Glu-Ala-Phe-NH2)?
A: The KM (substrate conversion by QC) was 81 µM.

Q: What about the KM (substrate conversion by QC) (H-Gln-Pro-Tyr-Phe-NH2) of the same substance?
A: Its KM (substrate conversion by QC) is 149 µM.

Q: What about the KM (substrate conversion by QC) (H-Gln-Glu-Tyr-Phe-NH2) of the same substance?
A: The KM (substrate conversion by QC) was 100 µM.

Q: What about the “KM (substrate conversion by QC)” value [2] of the same substance?
A: Its value is “KM=3.1±0.3 mM”.

Q: What about the KM (substrate conversion by QC) ([Gln^1]-Gastrin) of the same substance?
A: The KM (substrate conversion by QC) was 34 µM.

Q: What about the “conversion to the pyroglutamyl peptide (MALDI-TOF)” value [3] of the same substance?
A: Its value is “The methylated glutaminyl residue was only converted into a pyroglutamyl residue by papaya QC”.

Q: And the KM (substrate conversion by QC) ([Gln^1]-GnRH)?
A: Its KM (substrate conversion by QC) is 169 µM.

Q: And the KM (substrate conversion by QC) (H-Gln-Asn-Gly-Ile-NH2)?
A: Its KM (substrate conversion by QC) is 153 µM.

Q: What about the KM (substrate conversion by QC) (H-Gln-Glu-Tyr-Ala-NH2) of the same substance?
A: The KM (substrate conversion by QC) was 113 µM.

Q: And the KM (substrate conversion by QC) (H-Gln-Ser-Tyr-Phe-NH2)?
A: The KM (substrate conversion by QC) was 135 µM.

Q: And the KM (substrate conversion by QC) (H-Gln-Gln-OH)?
A: Its KM (substrate conversion by QC) is 44 µM.

Q: What about the “KM (substrate conversion by QC)” value [4] of the same substance?
A: The value was “KM-values of 240±14 µM and 133±5 µM for human and papaya QC, respectively”.

Q: And the KM (0.05 M Tricine-NaOH, pH 8.0) (H-Gln-Glu-Asp-Leu-NH2)?
A: The KM (0.05 M Tricine-NaOH, pH 8.0) was 0.109 mM.

Q: And the KM (0.05 M Tricine-NaOH, pH 8.0, 0.5 M KCl) (H-Gln-Glu-Asp-Leu-NH2)?
A: The KM (0.05 M Tricine-NaOH, pH 8.0, 0.5 M KCl) was 0.094 mM.

Q: And the KM (substrate conversion by QC) (H-Gln-Glu-Asp-Leu-NH2)?
A: The KM (substrate conversion by QC) was 107 µM.

Q: And the KM (substrate conversion by QC) ([Gln^1]-Neurotensin)?
A: The KM (substrate conversion by QC) was 40 µM.

Q: What about the KM (substrate conversion by QC) (H-Gln-Glu-Tyr-NH2) of the same substance?
A: Its KM (substrate conversion by QC) is 103 µM.

Q: And the KM (substrate conversion by QC) (H-Gln-Glu-Ala-Ala-NH2)?
A: Its KM (substrate conversion by QC) is 102 µM.

Q: What about the KM (0.05 M Tricine-NaOH, pH 8.0) (H-Gln-Glu-OH) of the same substance?
A: The KM (0.05 M Tricine-NaOH, pH 8.0) was 0.098 mM.

Q: What about the KM (0.05 M Tricine-NaOH, pH 8.0, 0.5 M KCl) (H-Gln-Glu-OH) of the same substance?
A: Its KM (0.05 M Tricine-NaOH, pH 8.0, 0.5 M KCl) is 0.094 mM.

Q: And the KM (substrate conversion by QC) (H-Gln-Glu-OH)?
A: The KM (substrate conversion by QC) was 106 µM.

Q: And the “substrate conversion, determined qualitatively by MALDI-TOF” value ([Gln^3]-glucagon(3-29))?
A: Its value is “*”.

Q: And the KM (substrate conversion by QC) (H-Gln-Gly-Pro-OH)?
A: The KM (substrate conversion by QC) was 333 µM.

Q: And the KM (substrate conversion by QC) [5]?
A: The KM (substrate conversion by QC) was 197 µM.

Q: And the KM (substrate conversion by QC) (H-Gln-Phe-Ala-NH2)?
A: The KM (substrate conversion by QC) was 111 µM.

Q: And the KM (substrate conversion by QC) (H-Gln-Arg-Tyr-Phe-NH2)?
A: The KM (substrate conversion by QC) was 124 µM.

Q: And the “substrate conversion, determined qualitatively by MALDI-TOF” value [6]?
A: Its value is “*”.

Q: And the KM (0.05 M Tricine-NaOH, pH 8.0) (H-Gln-Ala-OH)?
A: The KM (0.05 M Tricine-NaOH, pH 8.0) was 0.137 mM.

Q: And the KM (0.05 M Tricine-NaOH, pH 8.0, 0.5 M KCl) (H-Gln-Ala-OH)?
A: Its KM (0.05 M Tricine-NaOH, pH 8.0, 0.5 M KCl) is 0.143 mM.

Q: And the KM (substrate conversion by QC) (H-Gln-Ala-OH)?
A: The KM (substrate conversion by QC) was 158 µM.

Q: What about the KM (0.05 M Tricine-NaOH, pH 8.0) (H-Gln-Arg-Gly-Ile-NH2) of the same substance?
A: Its KM (0.05 M Tricine-NaOH, pH 8.0) is 0.106 mM.

Q: What about the KM (0.05 M Tricine-NaOH, pH 8.0, 0.5 M KCl) (H-Gln-Arg-Gly-Ile-NH2) of the same substance?
A: The KM (0.05 M Tricine-NaOH, pH 8.0, 0.5 M KCl) was 0.065 mM.

Q: And the KM (substrate conversion by QC) (H-Gln-Arg-Gly-Ile-NH2)?
A: The KM (substrate conversion by QC) was 123 µM.

Q: And the KM (substrate conversion by QC) [7]?
A: The KM (substrate conversion by QC) was 216 µM.

Q: And the KM (substrate conversion by QC) (H-Gln-Gly-OH)?
A: The KM (substrate conversion by QC) was 641 µM.

Q: And the KM (0.05 M Tricine-NaOH, pH 8.0) (H-Gln-Lys-Arg-Leu-NH2)?
A: The KM (0.05 M Tricine-NaOH, pH 8.0) was 0.102 mM.

Q: And the KM (0.05 M Tricine-NaOH, pH 8.0, 0.5 M KCl) (H-Gln-Lys-Arg-Leu-NH2)?
A: Its KM (0.05 M Tricine-NaOH, pH 8.0, 0.5 M KCl) is 0.053 mM.

Q: And the KM (substrate conversion by QC) (H-Gln-Lys-Arg-Leu-NH2)?
A: The KM (substrate conversion by QC) was 118 µM.

Q: What about the KM (substrate conversion by QC) (H-Gln-Gln-Tyr-Phe-NH2) of the same substance?
A: The KM (substrate conversion by QC) was 45 µM.

Q: And the KM (substrate conversion by QC) (H-Gln-His-Tyr-Phe-NH2)?
A: Its KM (substrate conversion by QC) is 92 µM.

Q: And the KM (substrate conversion by QC) (H-Gln-Ala-Ala-NH2)?
A: Its KM (substrate conversion by QC) is 164 µM.
